Test results taken from publication PMC11401214, “A new generation of nanobody research tools using improved mass spectrometry-based discovery methods” (The Journal of Biological Chemistry, 2024).
Residue numbers refer to the chain shown, from its start.

B1: LaTdT-1 (VHH)
VHH: DVQLVESGGGLVPAGGSLRLSCAASTSDLFSRYTMGWFRQAPGKEREFVSAITGMSSMTKYADSVKGRFTVSRDNRKATMYLQMDSLKPEDTAVYYCAAHTTTAAATPQSMGLMLKYDHWGQGTEVTVS
B2: LaTdT-9 (VHH)
VHH: QVQLVESGGGLVQPGDSLMLSCVISGHTFTNFRMGWFRQAPGKEREFVAGITWLFGRTDYADSVQGRFTISRDKGKDTMYLQMDSLKPEDTGVYTCAVQSGVLAYPMREGFYDIWGQGTHVTVS
B3: LaTdT-39 (VHH)
VHH: QVQLVESGGGLVQAGESLQLSCAASGGTLRDAIVGWFRQARGKEREFLASITWSGLSTNYSDSVKGRFVISRANPQNTAYLQMNSLKPEDTAIYYCAAKIGAFGLADEFRTVPQYDSWGQGTQVTVS
B4: LaTdT-38 (VHH)
VHH: QVQLVESGGGLVQAGGSLRLSCAASGRSFSGNNMGWFRQVSGTEREFVAAISWSGLITEYSGAVKGRFTISRDNAKNTLYLQMNSLKPEDTAVYSCAADGRDVQLPGRSEYDYNYWGQGTQVTVS
B5: LaTdT-2 (VHH)
VHH: DVQLVESGGGLVQAGDSLRLSCAFSGSAFDTYAMGWFRQAPGKEREFVSAITWSGGNTYYADSAKGRFTISRDDAKNTVYLQMNSLKPEDAATYYCAANRYGSSWSPLTKMGQYEHWGQGTQVTVS
B6: LaTdT-45 (VHH)
VHH: B5 VHH with D1Q
B7: LaTdT-8 (VHH)
VHH: QVQLVESGGGLVQAGDSLRLSCADAGLPYAFNHYGMAWFRQAPGKEREFVAGTSGGMTYYGDSVPDRFSFSRDNDKKTVHLHINSLKPEDTAVYYCAARLGGRYEDASDYDVWGQGTQVTVS
B8: LaTdT-10 (VHH)
VHH: DVQLVESGGRLVQDGGSLRLSCEVSGGTFDTFAMGWFRQAPGKEREFVSAITWSGGNTYYGDSVKGRFTISRNNVKRTVYLQMISLKPEDTGVYYCAADPYGSSWSPLQKEGQYDYWGQGTQVTVS
B9: LaTdT-44 (VHH)
VHH: B8 VHH with D1Q
B10: GST-8 (VHH)
VHH: QVQLVESGGDLVQAGGSLRLSCAASGSISAAYDMGWFRQVPGKQRELVASLGSGGFSAYADSVKGRFTVSRDNAKNTVYLQMNSLKPEDTGVYYCAARTPFDIWTTGRWGEYDYWGQGTQVTVS
notes: anti-GST nanobody; source: ArcticExpress (DE3) cells, purified from periplasm
B11: GST-5 (VHH)
VHH: QVQLVESGGGLVQAGGSLRLSCVVTGRAFGAYAMGWFRQSPGKEREFVAAITWNGGTTNYADSVKGRFAISRDNPPNTVYLQMNSLKPEDTAVYYCAKYPNNFWHNEAPDSWGRGTQVTVS
notes: as for B10
B12: GST-1 (VHH)
VHH: QVQLVESGGGLVQAGGSLRLSCVCVGRAFGVYAMGWFRQSPGKEREFVAAITWNGGSIDYADSVKGRFAISRDNPPNTVYLQMNSLKPEDTAVYYCAKYRNNYYNEAPNSWGQGTQVTVS
notes: as for B10
B13: GST-2 (VHH)
VHH: B12 VHH with C24V, V31A, D59T, Q82E, R100T, N109K
notes: as for B10
B14: GST-4 (VHH)
VHH: B12 VHH
notes: as for B10
B15: GST-3 (VHH)
VHH: QVQLVESGGGLVQPGGSLRLSCADSGRIFSDYTMAWFRQPPGKEREFVASINRSGLGTYYADSVKGRFTVTRDNAKNMVYLQMNSLTVEDTAVYYCGARWGGSYIDPREGMYDFRGQGTQVTVS
notes: as for B10
B16: GST-6 (VHH)
VHH: QVQLVESGGGLVQPGESLRLSCAASGFTFSSHRMNWLRQAPGKGLEWVSTTSTGGGSAATYYVNSVKGRFTVSRDDAKNMLYLQMNSLKPEDTARYYCAIPESPGRPFGSTWSEYRYWGQGTQVTVS
notes: as for B10
B17: GST-7 (VHH)
VHH: QVTLVESGGGLVQAGGSLGLSCTASGHTFNPYAMAWFRQAPGKEREFVAAIGWRVGTTYYTDSVKGRFTISADNAKNTAYLQMNSLKPEDTAVYYCAAGFGRSPSNYDYWGQGTQVTVS
notes: as for B10
B18: LaG94-15 (VHH)
VHH: QVQLVESGGGAVQSGGSLSLSCAASGGIRSISAMTWFRQAPGREREFVAAVTRTLGTTYYTDSVKGRFTISRDSVKGTLYLRMNNMRPEDAAVYYCAARTRGFSTKVALETTDGMDYWGKGTLVTVS
B19: LaG94-8 (VHH)
VHH: QVQLVESGGGLVQAGGSLRLSCAASGRTFMNYAMGWFRQAPGKGREFVASISWTGETSTYADFVKGRFTISRDNAKNTVYLQMDSLKPEDTAVYRCAAKRATDFDDTVREAAEADYWGQGTQVTVS
B20: LaG94-1 (VHH)
VHH: QVQLVESGGGLVQTGDSLRLSCRASGLTLSVYSTGWFRQAPGKEHENVAWISRSGDETYYEDSVKGRFTISRDNAKNTVYLQMNDLKPEDMARYYCAASNRGRTTAWNLYIYRGQGTQVTVS
B21: LaG94-9 (VHH)
VHH: QVQLVESGGGLVQPGGSLRLSCAASGGTFDTHTMGWFRQAPGKQREFVSAIRLHGVGTYYADSVKGRFTISRENAKNTVHLQMNNLKPEDTAVYYCAADRNWSRATEKEEYDYWGQGTQVTVS
B22: LaG94-4 (VHH)
VHH: DVQLVESGGGLVQAGGSLRLSCAASGDTSSIHFWEWYRQAPGKQRELVATANNGDFTHLQDSVKGRFTISKDNAKSTVYLQMNDLKPEDTAVYLCYARSYSNSNFWGQGTQVTVS
B23: LaG94-18 (VHH)
VHH: QVQLVESGGGLVQAGGSLRLSCVASGRTFSTSAMAWWRQAPGKEREFVAAISWNVGTTYYPDSVKGRFTISRDKAQNAVYLQMNSLKPEDTAVYYCAARVTGYFGDQVRRADDYRYWGQGTQVTVS
B24: LaG94-3 (VHH)
VHH: QVQLVESGGGLVQAGGSLRLSCTASGGTVSSSGMGWFRQSSGNDRDFVAFITPTGPTTWYEESVNSRFTVSRDNAKNTIYLQMKSLRPEDTAIYYCAAGNIGRDSRTYPYWGQGTQVTVS
B25: LaG94-10 (VHH)
VHH: QVQLVESGGGLVQAGGSLRLSCAASGLTLRVYDVTWFRQAPGKEREFVGTVNRNGVVTDYADSVKGRFTISRDNPKNTIYLQMNSLKPEDTAVYYCAAKTRPKLSTLWDEYIYRGQGTQVTVS
B26: LaG94-12 (VHH)
VHH: QVQLVESGGRLVQAGGSLRLSCAVSGGTFSLYSLGWFRQAPGKEREFVAAFSREDGTTSFADSVKGRFTMFRDGTKNTVYLQMNSLKQEDTAVYSCAATVRAQPSYSWSSYVYRGLGTQVTVS
B27: LaG94-2 (VHH)
VHH: DVQLVESGGALVQAGGSLRLSCEFSGGTFNLYGIGWFRQAPEQDHEFVAGVSRYGSTYESVSVKGRFTSSRDNAKNSAYLEMNTLKPEDTGVYTCAATVREQVPTNFGSYIYRGQGTQVTVS
B28: LaG94-5 (VHH)
VHH: QVQLAESGGGLVQAGGSLRLSCAASGRTFAMGWFRRAPGKEREFVASMSRSGLDTHYADSVKGRFTISRDNALNTVYLQTDSLKPEDTGDYFCAVGLRYWSLSGDYIRREKYDVWGQGTQVTVS
B29: LaG94-6 (VHH)
VHH: QVQLVESGGGAVQAGGSLRLSCAASGLTFSLYTMGWFRQAPEKEPEFVAYISKSGDTTTYADSVKGRFTIGRDNAKSTVYLQMNSLKSEDTAVYYCAASIKREITPNSIYRGQGTQVTVS

Each binder was assayed against tdTomato (assay: SPR; Biacore 8K; antigen immobilised on CM5 chip by amine coupling at 1 ug/ml (tdTomato) or 5 ug/ml (GST, IgGs) in 10 mM sodium acetate pH 5.5; nanobody injected in single-cycle kinetics at 0.1-10 nM; 20 mM Na-Hepes pH 7.4, 150 mM NaCl, 0.05% Tween 20; Langmuir 1:1 model, RIgG-1 and GIgG-4 fit to a two-step binding model). Conditions: not given.

Row | Kd [pM] | Binder
1 | < 18 | B1
2 | 84 | B2
3 | 5.9 | B3
4 | 57 | B4
5 | 3.5 | B5
6 | 28 | B6
7 | 37 | B7
8 | 52 | B8
9 | 44 | B9

What follows are binders tested against T1, GST (Schistosoma japonicum (assumed, …, UniProt P08515 = GST)) in the same assay as above. Conditions: both partners purified.
T1 construct: GST (glutathione S-transferase), the expression fusion protein tag; the methods describe only the production of GST-TEV protease; the 'GST' immobilised for SPR may be that fusion
T1 sequence (P08515 whole entry, looked up, the tested form may be a part): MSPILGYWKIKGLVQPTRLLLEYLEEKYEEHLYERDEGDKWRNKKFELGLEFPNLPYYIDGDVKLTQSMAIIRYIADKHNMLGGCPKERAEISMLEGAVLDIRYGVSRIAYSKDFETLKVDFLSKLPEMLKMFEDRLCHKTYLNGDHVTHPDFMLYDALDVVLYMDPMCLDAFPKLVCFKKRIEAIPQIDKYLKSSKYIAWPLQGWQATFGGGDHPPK

Row | Kd [pM] | Binder
10 | 130 | B10
11 | 130 | B11
12 | 85 | B12
13 | 64 | B13
14 | 260 | B14
15 | 350 | B15
16 | 150 | B16
17 | 170 | B17

The binders below were run against GFP [GFP: P42212] (assay: SPR; GFP immobilised by EDC/NHS coupling (ProteOn XPR36, GLC chip, 5 ug/ml in 10 mM sodium acetate pH 5.0; or Biacore 8K, CM5 chip, 5 ug/ml, pH 5.5); nanobody as analyte; 20 mM Na-Hepes pH 7.4, 150 mM NaCl, 0.05% Tween 20; Langmuir binding model). Conditions: not given.

Row | Kd [pM] | Binder
18 | < 0.14 | B18
19 | 210 | B19
20 | 16 | B20
21 | 21 | B21
22 | 3700 | B22
23 | 920 | B23
24 | 130 | B24
25 | 9 | B25
26 | 300 | B26
27 | 27000 | B27
28 | < 0.89 | B28
29 | 83 | B29
